Experiment [1] concerns the target T1, human folate receptor alpha (FOLR1) (human, UniProt P15328 25-234, limits assumed).
T1 construct: also called hFOLR1; human FOLR1
In words: SPR (Biacore), kinetics to hFOLR1, pre TCO conjugation. (Surface plasmon resonance follows binding to a sensor surface in real time, without labels.)

Experiment [2] concerns the target T2, hFOLR1 (Homo sapiens, UniProt P15328). In words: SPR click reaction with Tz-R3B23, span of relative response (Example 8, Table 20). Particulars: Biacore. As to the method: Next, the click reaction was verified using SPR. 5 μg/mL recombinant hHER2 in 10 mM NaOAc pH 4.5 or 5 μg/mL recombinant hFOLR1 in 10 mM NaOAc pH 5.5 was immobilized on a Biacore Sensor Chip CM5 to a target level of 740 Response Units (RU) and 250 RU, respectively. […] For the VHH7 binding FOLR1 a VHH concentration of 5 nM was used, and the association and dissociation phases took 450 s and 900 s, respectively. […] As a negative control for the click reaction, we injected assay buffer (HBS) instead of the Tz-R3B23 over the flow cell. Using the Biacore evaluation software we determined the difference between the relative response before and after the click reaction with either the Tz-R3B23 or the negative control assay buffer. This difference is further on referred to as span.

In experiment [3] the target is T2, hFOLR1. The experiment can be described thus: SPR (Biacore) binding kinetics before and after TCO conjugation (Example 8, Table 19). From the text: Using Surface Plasmon Resonance (Biacore) we determined the binding kinetics of the unconjugated and TCO-conjugated VHH (TCO-VHH) for the respective target as described earlier for VHH2 and VHH8 (EP3718574A1).
Experiment [4] has as its target T1, human folate receptor alpha (FOLR1). The experiment can be described thus: SPR (Biacore), kinetics to hFOLR1, post TCO conjugation.
The target in experiment [5] is T3, human fibroblast activation protein (FAP) (human, UniProt Q12884 26-760).
T3 construct: also called human FAP; hFAP
T3 sequence: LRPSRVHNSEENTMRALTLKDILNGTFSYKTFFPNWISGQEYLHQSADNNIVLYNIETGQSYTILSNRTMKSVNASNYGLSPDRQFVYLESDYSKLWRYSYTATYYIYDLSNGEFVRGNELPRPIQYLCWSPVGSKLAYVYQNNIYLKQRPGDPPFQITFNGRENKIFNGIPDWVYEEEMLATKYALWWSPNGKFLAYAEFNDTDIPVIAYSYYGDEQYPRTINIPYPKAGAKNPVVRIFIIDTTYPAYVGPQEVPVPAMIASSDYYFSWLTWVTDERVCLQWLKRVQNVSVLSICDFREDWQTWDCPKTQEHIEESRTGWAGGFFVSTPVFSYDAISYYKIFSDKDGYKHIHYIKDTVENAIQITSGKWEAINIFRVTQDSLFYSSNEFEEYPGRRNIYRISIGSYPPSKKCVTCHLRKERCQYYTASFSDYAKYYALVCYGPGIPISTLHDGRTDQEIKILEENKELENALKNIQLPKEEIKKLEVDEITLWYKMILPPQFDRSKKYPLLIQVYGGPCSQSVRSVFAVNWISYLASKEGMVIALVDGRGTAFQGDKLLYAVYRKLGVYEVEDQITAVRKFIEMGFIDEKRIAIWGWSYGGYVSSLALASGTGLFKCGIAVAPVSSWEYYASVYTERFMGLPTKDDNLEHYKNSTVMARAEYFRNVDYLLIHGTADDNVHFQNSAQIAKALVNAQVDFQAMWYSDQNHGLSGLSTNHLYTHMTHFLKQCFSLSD
The experiment can be described thus: BLI (Octet), kinetics to human FAP, post TCO conjugation. As to the method: (§1) Using the BLI technology on Octet system the binding kinetics towards human FAP were determined for each of the five VHHs pre- and post-TCO conjugation.
(In BLI a coated tip is dipped into the sample, and binding shifts an interference pattern.)

Another experiment deals with T4, human FAP (Homo sapiens, UniProt Q12884).
T4 sequence (Q12884 1-760): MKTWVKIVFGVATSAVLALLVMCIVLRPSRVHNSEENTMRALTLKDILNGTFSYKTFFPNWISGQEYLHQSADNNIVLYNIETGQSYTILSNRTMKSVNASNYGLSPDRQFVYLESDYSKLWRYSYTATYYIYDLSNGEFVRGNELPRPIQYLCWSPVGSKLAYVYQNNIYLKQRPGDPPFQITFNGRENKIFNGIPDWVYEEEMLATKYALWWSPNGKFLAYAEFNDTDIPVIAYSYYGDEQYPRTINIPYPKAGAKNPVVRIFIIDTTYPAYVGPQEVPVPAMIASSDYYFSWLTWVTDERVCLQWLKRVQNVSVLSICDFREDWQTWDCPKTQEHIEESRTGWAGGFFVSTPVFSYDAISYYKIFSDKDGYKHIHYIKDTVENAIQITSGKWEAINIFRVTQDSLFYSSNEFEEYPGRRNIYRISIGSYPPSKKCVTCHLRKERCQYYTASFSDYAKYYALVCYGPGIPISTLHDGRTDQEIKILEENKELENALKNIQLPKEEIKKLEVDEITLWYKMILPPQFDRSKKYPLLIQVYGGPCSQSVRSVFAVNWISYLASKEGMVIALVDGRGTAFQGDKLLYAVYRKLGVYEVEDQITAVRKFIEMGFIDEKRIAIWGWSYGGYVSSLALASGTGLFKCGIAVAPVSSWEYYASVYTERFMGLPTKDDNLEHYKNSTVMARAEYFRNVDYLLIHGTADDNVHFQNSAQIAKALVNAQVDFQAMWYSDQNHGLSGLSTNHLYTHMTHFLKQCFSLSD
In words: BLI click reaction with Tz-R3B23 on TCO-VHHs bound to target, span (Example 7, Table 18). To be noted: signal difference vs assay buffer. The protocol: Next, Octet Streptavidin (SA) Biosensors were coated with 5 μg/mL biotinylated human FAP in assay buffer (HBS+0.5% BSA+0.1% Tween20) for 5 minutes. The sensors were then dipped in wells containing a 5 nM solution of the different VHHs (both TCO conjugated and unconjugated as control) for 20 minutes (association step) and further transferred to the assay buffer (dissociation step) for 30 minutes. After the dissociation phase, that simulates the lag time, the sensors were transferred to either a well containing 50 nM of a tetrazine-coupled, non-FAP binding R3B23 (Tz-R3B23) or to a well containing assay buffer as a control. This reaction was allowed to proceed for 20 minutes (experiment 1) or 30 minutes (experiment 2) after which the sensors were washed for 30 minutes in assay buffer. In the second experiment the TCO-VHHs were measured in duplicate (referred to as assay 1 and 2 of ‘experiment 2’ in the table below). Using the epitope binning function of ‘Octet Analysis Software’ we then determined the difference in signal between the VHHs incubated with Tz-R3B23 and the VHHs incubated with assay buffer. […] The span of unconjugated VHHs was considered as noise.

Experiment [6] concerns the target T3, human fibroblast activation protein …. The experiment can be described thus: BLI (Octet), kinetics to human FAP, pre TCO conjugation. The protocol:
as §1

T2 sequence (P15328 25-234): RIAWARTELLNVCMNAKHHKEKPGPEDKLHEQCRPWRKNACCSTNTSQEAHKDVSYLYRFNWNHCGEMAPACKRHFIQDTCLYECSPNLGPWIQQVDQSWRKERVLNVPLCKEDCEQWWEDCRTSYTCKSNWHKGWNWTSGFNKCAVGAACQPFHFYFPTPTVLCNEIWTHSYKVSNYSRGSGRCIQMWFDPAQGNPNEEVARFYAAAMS
T1 sequence (P15328 25-234 limits assumed): as the sequence (P15328 25-234) above

B1: VHH2 (VHH)
VHH: DVQLVESGGGLVQPGGSLRLSCAASESIFSRNHMSWYRQAPGKQRELAAIITSDGNTNYPDSVKGRFTISRDNAKNTVYLQMNSLKPEDTAVYYCNTFGRSVAGFYDYWGQGTQVTVSS
notes: Anti-FOLR1 VHH, tested before TCO conjugation; also called VHH VHH2; unconjugated VHH2
Broadly, the Kd is the free concentration of one partner at which half of the binding sites on the other are occupied at equilibrium, for simple one-to-one binding. Read a high Kd as a looser complex. What is called koff is a measure of how fast the partners let go of each other. Low readings indicate a long-lived complex, high ones a short-lived complex. What is called kon is the rate constant with which the complex forms. A low value points to slow association. On to B1, for which, in experiment [1], the Kd is 0.047 nM, the koff came out at 0.000167 s⁻¹ and the kon was determined as 3.54e+06 M⁻¹ s⁻¹.

B2: VHH2: VHH, target FOLR1, SEQ ID NO 21 (protein)
VHH: DVQLVESGGGLVQPGGSLRLSCAASESIFSRNHMSWYRQAPGKQRELAAIITSDGNTNYPDSVKGRFTISRDNAKNTVYLQMNSLKPEDTAVYYCNTFGRSVAGFYDYWGQGTQVTVSS
modifications: Full length sequence of VHH2
With B2, the “Span of the Relative Response” value with hFOLR1 [2] (TCO-VHH bound on hFOLR1, Tz-R3B23 at 100 times molar excess) is given as 12.3 RU; with hFOLR1 [2] (Unconjugated VHH bound on hFOLR1, Tz-R3B23 at 100 times molar excess) it was 0.6 RU. The “binding kinetics after TCO conjugation” value in the experiment with hFOLR1 [3] is reported as “barely affected”. Besides, the koff with hFOLR1 [3] (Post conjugation (TCO)) came out at 0.000192 s⁻¹; in the experiment with hFOLR1 [3] (Pre conjugation), 0.000167 s⁻¹. Further, the results for the kon in the experiment with hFOLR1 [3] (Post conjugation (TCO)) and in the experiment with hFOLR1 [3] (Pre conjugation) were 2.61e+06 M⁻¹ s⁻¹ and 3.54e+06 M⁻¹ s⁻¹, respectively.

B3: TCO-VHH2 (VHH)
VHH: DVQLVESGGGLVQPGGSLRLSCAASESIFSRNHMSWYRQAPGKQRELAAIITSDGNTNYPDSVKGRFTISRDNAKNTVYLQMNSLKPEDTAVYYCNTFGRSVAGFYDYWGQGTQVTVSS
modifications: trans-cyclooctene (TCO) conjugated via NHS-TCO; site(s) and number not stated
notes: also called TCO-conjugated VHH2; VHH2 post conjugation
In experiment [4], B3 yielded a Kd of 0.0734 nM, a koff of 0.000192 s⁻¹ and a kon of 2.61e+06 M⁻¹ s⁻¹.

B4: TCO-VHH8 (VHH)
VHH: QVQLQESGGGTVQPGGSLRLSCAASGISVSIASMAWYRQAPGKQRELVAGIISGGSTNYADSVKGRFTISRDNAKKVVLLQMNSLKPEDTAVYYCNTYPPFVGPGATATWGQGTQVTVSS
modifications: trans-cyclooctene (TCO) conjugated via TCO-NHS; site(s) and number not stated
notes: also called TCO conjugated VHH8; VHH8 post conjugation
With B4, in experiment [5], the Kd was determined as 0.671 nM, the koff stood at 0.000559 s⁻¹ and the kon stood at 833000 M⁻¹ s⁻¹.

B5: TCO-VHH1 (VHH)
VHH: DVQLVESGGGLVQPGGSLRLSCVASGRLSSSNSMAWYRQVPGKRRELVAGITGGGETNYADFVGGRFTISRDNAKNGLYLQLNGLKPEDTAAYYCNFWPPLINYWGQGTQVTVSS
modifications: trans-cyclooctene (TCO) conjugated via TCO-NHS; site(s) and number not stated
notes: also called TCO conjugated VHH1; VHH1 post conjugation
In experiment [5], B5 came in with a Kd of 0.0719 nM, a koff of 4.99e-05 s⁻¹ and a kon of 694000 M⁻¹ s⁻¹.

B6: TCO-VHH7 (VHH)
VHH: QVQLQESGGGLVQAGGSLRLSCTASGTFSGRNAMAWYRQAPGKRRELVAGIRSDDSTNYVDSVKGRFTISRDNAKNTVYLQMNSLRPEDTAVYYCNLWPPVIGAGFGSWGQGTQVTVSS
modifications: trans-cyclooctene (TCO) conjugated via TCO-NHS; site(s) and number not stated
notes: also called TCO conjugated VHH7; VHH7 post conjugation
In experiment [5], B6 yielded a Kd of 0.166 nM, a koff of 0.000123 s⁻¹ and a kon of 746000 M⁻¹ s⁻¹.

B7: TCO-VHH6 (VHH)
VHH: DVQLVESGGGLVQAGGSLRLSCAVSGSISSANSMGWYRQAPGKQRDVVAGLTTGGRSHYADSVKGRFTISRDNAKNTVYLQMNSLKAEDTAVYYCNLWPPVQGYWGQGTQVTVSS
modifications: trans-cyclooctene (TCO) conjugated via TCO-NHS; site(s) and number not stated
notes: also called TCO conjugated VHH6; VHH6 post conjugation
For the molecule B7, in experiment [5], binding was put at a Kd of 0.147 nM, the koff is 0.000157 s⁻¹ and the kon turned out to be 1.07e+06 M⁻¹ s⁻¹. The molecule further came in with a Span in the experiment with human FAP (Experiment 1, click reaction with 50 nM Tz-R3B23 for 20 minutes) of 0.0230. In the experiment with human FAP (Experiment 2, 1st assay, click reaction with 50 nM Tz-R3B23 for 30 minutes), this molecule displayed a Span of 0.0287. The molecule further registered a Span in the experiment with human FAP (Experiment 2, 2nd assay, click reaction with 50 nM Tz-R3B23 for 30 minutes) of 0.0229.

B8: VHH6 (VHH)
VHH: DVQLVESGGGLVQAGGSLRLSCAVSGSISSANSMGWYRQAPGKQRDVVAGLTTGGRSHYADSVKGRFTISRDNAKNTVYLQMNSLKAEDTAVYYCNLWPPVQGYWGQGTQVTVSS
notes: Anti-FAP VHH, tested before TCO conjugation; also called unconjugated VHH6
As for B8, in experiment [6], the affinity, expressed as Kd, was 0.0551 nM; the koff was 0.000188 s⁻¹; the kon was determined as 3.41e+06 M⁻¹ s⁻¹.

B9: VHH9 (VHH)
VHH: QVQLQESGGGLVQSGGSLRLSCVASGSISSINAMGWYRQAPGNKREWVAGITSGGSTNYADAVLGRFSIFRDNPKNTVYLQMNSLKPEDTAVYYCNTWPPSTFGSWGQGTQVTVSS
notes: Anti-FAP VHH, tested before TCO conjugation; also called unconjugated VHH9
In experiment [6], B9 came in with a Kd of 0.453 nM, a koff of 0.0018 s⁻¹ and a kon of 3.98e+06 M⁻¹ s⁻¹.

B10: TCO-VHH9 (VHH)
VHH: QVQLQESGGGLVQSGGSLRLSCVASGSISSINAMGWYRQAPGNKREWVAGITSGGSTNYADAVLGRFSIFRDNPKNTVYLQMNSLKPEDTAVYYCNTWPPSTFGSWGQGTQVTVSS
modifications: trans-cyclooctene (TCO) conjugated via TCO-NHS; site(s) and number not stated
notes: also called TCO conjugated VHH9; VHH9 post conjugation
In experiment [5], B10 gave a Kd of 0.951 nM, a koff of 0.0012 s⁻¹ and a kon of 1.26e+06 M⁻¹ s⁻¹.

(Values after patent US20250122304A1, “PRE-TARGETING” (Precirix N.V., priority 2022, published 2025).)
